The record followed here is patent US20180362585A1 (Bicycle, published 2018).

Assay [1] has as its target T1, human plasma Kallikrein (human, UniProt P03952 20-638).
T1 construct: also called hPK; human PK
Kind of assay: enzyme inhibition. The procedure: (§1) Functional enzyme assays were conducted in 10 mM Tris HCl, 150 mM NaCl, 10 mM MgCl2, 1 mM CaCl₂) and 1 mg/mL BSA (all Sigma UK) pH7.4 at 25° C. in solid black 96 well plates. […] Release of AMC was measured using a Pherastar FS (BMG Labtech), excitation 360 nm, emission 460 nm. The rate of the linear phase of the reaction, typically 5 to 45 minutes, was calculated in MARS data analysis software (BMG labtech). The rate was then used to calculate the IC50 and Ki in Prism (GraphPad).
Crucially, such modifications should not affect the potency against human or rat Kallikrein. An initial exploration regarding the role of the WPAR (SEQ ID No. 19) sequence/pharmacophore (FIG. 9, 10) was performed by replacing W₂P₃ with A₂A₃ or A₂Q₃ and by scrambling parts or the entire first loop of the bicycle.

Assay [2] concerns the target T1, human plasma Kallikrein. Kind of assay: enzyme inhibition. The procedure:
as §1
This is another data set of the same source.

For assay [3], the target named is T1, human plasma Kallikrein. The assay can be described thus: enzyme inhibition; ref WT. The procedure: as §1
In the next assay the target is T2, rat plasma Kallikrein (rat, UniProt P14272 391-638, limits assumed).
T2 construct: domain: catalytic domain; also called rPK; rat PK
T2 sequence (P14272 391-638 limits assumed): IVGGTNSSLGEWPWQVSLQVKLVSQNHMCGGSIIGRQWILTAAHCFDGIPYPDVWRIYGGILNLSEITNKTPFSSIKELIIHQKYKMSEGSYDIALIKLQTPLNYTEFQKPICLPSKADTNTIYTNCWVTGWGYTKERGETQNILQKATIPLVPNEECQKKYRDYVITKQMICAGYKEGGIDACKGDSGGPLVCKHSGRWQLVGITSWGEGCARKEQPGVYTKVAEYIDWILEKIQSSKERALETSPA
The assay can be described thus: enzyme inhibition. As for the experimental part:
as §1

Read-outs that look alike come from different tables or passages of the source. Numbered stars: 1 amine (or outer) side, 2 acyl side, 3 side chain; on linkers, the order of the positions; unused ones are H or OH. Bridge positions count the residues as written; N and C are the ends. Square brackets hold non-standard residues; d marks the D form. Ends that are not written are not given here. TBMB = c1c(C[*:1])cc(C[*:3])cc1C[*:2]; Sar = CNCC(=O)O

T1 sequence (P03952 20-638 limits assumed): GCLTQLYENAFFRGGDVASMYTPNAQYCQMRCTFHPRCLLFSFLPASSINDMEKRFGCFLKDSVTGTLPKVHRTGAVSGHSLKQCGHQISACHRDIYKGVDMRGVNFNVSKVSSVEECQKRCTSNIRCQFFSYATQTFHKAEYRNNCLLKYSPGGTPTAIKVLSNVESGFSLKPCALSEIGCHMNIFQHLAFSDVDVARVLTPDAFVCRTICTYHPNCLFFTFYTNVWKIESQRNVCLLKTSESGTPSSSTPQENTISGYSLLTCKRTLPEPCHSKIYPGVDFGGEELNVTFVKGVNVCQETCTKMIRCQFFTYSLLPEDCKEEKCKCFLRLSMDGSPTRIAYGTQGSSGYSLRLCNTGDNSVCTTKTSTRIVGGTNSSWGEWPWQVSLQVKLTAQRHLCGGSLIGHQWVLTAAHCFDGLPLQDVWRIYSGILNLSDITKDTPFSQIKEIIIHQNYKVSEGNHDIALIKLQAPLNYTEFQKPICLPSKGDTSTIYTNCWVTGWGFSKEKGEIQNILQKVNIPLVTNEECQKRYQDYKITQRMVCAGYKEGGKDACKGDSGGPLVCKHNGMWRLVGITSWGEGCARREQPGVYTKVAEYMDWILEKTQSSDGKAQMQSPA

B1: Ac-(06-34-18) Scram4 (peptide)
peptide: Ac-CWARSPCLHQDLC-NH2
modifications: linker 1-7-13 via TBMB
SMILES: CC(=O)N[C@H]1CSCc2cc3cc(c2)CSC[C@H](NC(=O)[C@@H]2CCCN2C(=O)[C@H](CO)NC(=O)[C@H](CCCNC(=N)N)NC(=O)[C@H](C)NC(=O)[C@H](Cc2c[nH]c4ccccc24)NC1=O)C(=O)N[C@@H](CC(C)C)C(=O)N[C@@H](Cc1c[nH]cn1)C(=O)N[C@@H](CCC(N)=O)C(=O)N[C@@H](CC(=O)O)C(=O)N[C@@H](CC(C)C)C(=O)N[C@H](C(N)=O)CSC3
Usually Ki stands for the equilibrium dissociation constant of an inhibitor or competing ligand from its target. High values mean lower affinity, low ones higher affinity. For the molecule B1, the Ki in the assay with human plasma Kallikrein [1] amounted to 67500 nM.

B2: 06-64 T (peptide)
peptide: ACGVPYRCTHQEMCA
modifications: linker 2-8-14 via TBMB; not fully specified (N-terminus, C-terminus)
In the case of B2, the affinity with human plasma Kallikrein [2] corresponds to a Ki of 6.9 nM.

B3: Ac-(06-34-18) Phe2 Tyr4 Thr7 Thr8 Glu9 (peptide)
peptide: Ac-CSFPYRCLTTELC-NH2
modifications: linker 1-7-13 via TBMB
SMILES: CC(=O)N[C@H]1CSCc2cc3cc(c2)CSC[C@H](NC(=O)[C@H](CCCNC(=N)N)NC(=O)[C@H](Cc2ccc(O)cc2)NC(=O)[C@@H]2CCCN2C(=O)[C@H](Cc2ccccc2)NC(=O)[C@H](CO)NC1=O)C(=O)N[C@@H](CC(C)C)C(=O)N[C@@H]([C@@H](C)O)C(=O)N[C@@H]([C@@H](C)O)C(=O)N[C@@H](CCC(=O)O)C(=O)N[C@@H](CC(C)C)C(=O)N[C@H](C(N)=O)CSC3
notes: also called loop 2 LTTEL
As to B3, the “F (Kivar/KiWT)” value with human plasma Kallikrein [3] stood at 193 fold. Further, the Ki with human plasma Kallikrein [2] worked out at 81 nM.

B4: 06-61 (peptide)
peptide: ACSWPYRCLHQDYCA
modifications: linker 2-8-14 via TBMB; not fully specified (N-terminus, C-terminus)
In the case of B4, the Ki with human plasma Kallikrein [2] was found to be 5.8 nM.

B5: 06-34-01 (peptide)
peptide: ACSWPARCVHQDLCA
modifications: linker 2-8-14 via TBMB; not fully specified (N-terminus, C-terminus)
As a reminder, the IC50 is the point on the concentration scale where inhibition reaches its midpoint. In the case of B5, the IC50 with rat plasma Kallikrein was 6.12 nM; with human plasma Kallikrein [2] it was 0.15 nM.

B6: 06-34-03 (01 + 02) (peptide)
peptide: ACSWPARCTHQDLCA
modifications: linker 2-8-14 via TBMB; not fully specified (N-terminus, C-terminus)
Consider B6, for which the IC50 with rat plasma Kallikrein turned out to be 0.87 nM; in the assay with human plasma Kallikrein [2], 0.082 nM.

B7: 06-34-02 (peptide)
peptide: ACRWPARCTHQDLCA
modifications: linker 2-8-14 via TBMB; not fully specified (N-terminus, C-terminus)
In the case of B7, the results for the IC50 with rat plasma Kallikrein and with human plasma Kallikrein [2] were 1.09 nM and 0.16 nM, respectively.

B8: 06-34-04 (peptide)
peptide: ACRWPARCMHQDLCA
modifications: linker 2-8-14 via TBMB; not fully specified (N-terminus, C-terminus)
On to B8, for which the IC50 with rat plasma Kallikrein turned out to be 0.56 nM; with human plasma Kallikrein [2], 0.075 nM.

B9: 06-34-18 (01 + 05) (peptide)
peptide: ACSWPARCLHQDLCA
modifications: linker 2-8-14 via TBMB; not fully specified (N-terminus, C-terminus)
In the assay with rat plasma Kallikrein, B9 registered an IC50 of 0.56 nM. Besides, in the assay with human plasma Kallikrein [2], the IC50 stood at 0.07 nM and the Ki turned out to be 0.04 nM.

B10: 06-34-17 (01 + 04) (peptide)
peptide: ACSWPARCMHQDLCA
modifications: linker 2-8-14 via TBMB; not fully specified (N-terminus, C-terminus)
For B10, the IC50 was 0.44 nM with rat plasma Kallikrein and 0.073 nM with human plasma Kallikrein [2].

B11: 06-34-05 (peptide)
peptide: ACRWPARCLHQDLCA
modifications: linker 2-8-14 via TBMB; not fully specified (N-terminus, C-terminus)
Consider B11, for which the results for the IC50 with rat plasma Kallikrein and with human plasma Kallikrein [2] were 0.62 nM and 0.076 nM, respectively.

B12: 06-54 (2A2) T (peptide)
peptide: ACRWPARCTHQNYCA
modifications: linker 2-8-14 via TBMB; not fully specified (N-terminus, C-terminus)
Consider B12, for which, in the assay with human plasma Kallikrein [2], the Ki was 0.49 nM.

B13: 06-34-03 - Ala1,6 (peptide)
peptide: ACAWPARCAHQDLCA
modifications: linker 2-8-14 via TBMB; not fully specified (N-terminus, C-terminus)
notes: also called R1A/V6A
Molecule B13 gave a Ki with human plasma Kallikrein [2] of 0.147 nM.

B14: Ac-(06-34-18) Scram3 (peptide)
peptide: Ac-CAPWSRCLHQDLC-NH2
modifications: linker 1-7-13 via TBMB
SMILES: CC(=O)N[C@H]1CSCc2cc3cc(c2)CSC[C@H](NC(=O)[C@H](CCCNC(=N)N)NC(=O)[C@H](CO)NC(=O)[C@H](Cc2c[nH]c4ccccc24)NC(=O)[C@@H]2CCCN2C(=O)[C@H](C)NC1=O)C(=O)N[C@@H](CC(C)C)C(=O)N[C@@H](Cc1c[nH]cn1)C(=O)N[C@@H](CCC(N)=O)C(=O)N[C@@H](CC(=O)O)C(=O)N[C@@H](CC(C)C)C(=O)N[C@H](C(N)=O)CSC3
For the molecule B14, in the assay with human plasma Kallikrein [1], the Ki stood at 1890 nM.

B15: Ac-(06-34-18) Scram2 (peptide)
peptide: Ac-CWASPRCLHQDLC-NH2
modifications: linker 1-7-13 via TBMB
SMILES: CC(=O)N[C@H]1CSCc2cc3cc(c2)CSC[C@H](NC(=O)[C@H](CCCNC(=N)N)NC(=O)[C@@H]2CCCN2C(=O)[C@H](CO)NC(=O)[C@H](C)NC(=O)[C@H](Cc2c[nH]c4ccccc24)NC1=O)C(=O)N[C@@H](CC(C)C)C(=O)N[C@@H](Cc1c[nH]cn1)C(=O)N[C@@H](CCC(N)=O)C(=O)N[C@@H](CC(=O)O)C(=O)N[C@@H](CC(C)C)C(=O)N[C@H](C(N)=O)CSC3
The molecule B15 had a Ki with human plasma Kallikrein [1] of 11400 nM.

B16: 06-59 (peptide)
peptide: ACRWPARCLTTSLCA
modifications: linker 2-8-14 via TBMB; not fully specified (N-terminus, C-terminus)
As to B16, the Ki with human plasma Kallikrein [2] was found to be 0.5 nM.

B17: 06-34-03 - N-MeGly1,6 (peptide)
peptide: AC[Sar]WPARC[Sar]HQDLCA
modifications: linker 2-8-14 via TBMB; not fully specified (N-terminus, C-terminus)
notes: also called AC(N-MeG)WPARC(N-MeG)HQDLCA
The molecule B17 gave a Ki in the assay with human plasma Kallikrein [2] of 24.8 nM.

B18: Ac-(06-34-18) Scram1 (peptide)
peptide: Ac-CPSAWRCLHQDLC-NH2
modifications: linker 1-7-13 via TBMB
SMILES: CC(=O)N[C@H]1CSCc2cc3cc(c2)CSC[C@H](NC(=O)[C@H](CCCNC(=N)N)NC(=O)[C@H](Cc2c[nH]c4ccccc24)NC(=O)[C@H](C)NC(=O)[C@H](CO)NC(=O)[C@@H]2CCCN2C1=O)C(=O)N[C@@H](CC(C)C)C(=O)N[C@@H](Cc1c[nH]cn1)C(=O)N[C@@H](CCC(N)=O)C(=O)N[C@@H](CC(=O)O)C(=O)N[C@@H](CC(C)C)C(=O)N[C@H](C(N)=O)CSC3
B18 displayed a Ki in the assay with human plasma Kallikrein [1] of 1090 nM.

B19: Ac-(06-34-18) A2A3 (peptide)
peptide: Ac-CSAAARCLHQDLC-NH2
modifications: linker 1-7-13 via TBMB
SMILES: CC(=O)N[C@H]1CSCc2cc3cc(c2)CSC[C@H](NC(=O)[C@H](CCCNC(=N)N)NC(=O)[C@H](C)NC(=O)[C@H](C)NC(=O)[C@H](C)NC(=O)[C@H](CO)NC1=O)C(=O)N[C@@H](CC(C)C)C(=O)N[C@@H](Cc1c[nH]cn1)C(=O)N[C@@H](CCC(N)=O)C(=O)N[C@@H](CC(=O)O)C(=O)N[C@@H](CC(C)C)C(=O)N[C@H](C(N)=O)CSC3
As to B19, the “fold reduction in binding vs wildtype” value with human plasma Kallikrein [2] is approximately 100000 fold. Further, in the assay with human plasma Kallikrein [1], the affinity corresponds to a Ki of 18500 nM.

B20: Ac-(06-34-18) A2Q3 (peptide)
peptide: Ac-CSAQARCLHQDLC-NH2
modifications: linker 1-7-13 via TBMB
SMILES: CC(=O)N[C@H]1CSCc2cc3cc(c2)CSC[C@H](NC(=O)[C@H](CCCNC(=N)N)NC(=O)[C@H](C)NC(=O)[C@H](CCC(N)=O)NC(=O)[C@H](C)NC(=O)[C@H](CO)NC1=O)C(=O)N[C@@H](CC(C)C)C(=O)N[C@@H](Cc1c[nH]cn1)C(=O)N[C@@H](CCC(N)=O)C(=O)N[C@@H](CC(=O)O)C(=O)N[C@@H](CC(C)C)C(=O)N[C@H](C(N)=O)CSC3
In the case of B20, the “fold reduction in binding vs wildtype” value with human plasma Kallikrein [2] was approximately 100000 fold. The same molecule yielded a Ki with human plasma Kallikrein [1] of 15800 nM.

B21: 06-157 (peptide)
peptide: ACNWPYRCLHTDLCA
modifications: linker 2-8-14 via TBMB; not fully specified (N-terminus, C-terminus)
B21 gave a Ki with human plasma Kallikrein [2] of 3.3 nM.
